In publication PMC12331936, “Structural Insights into the Protein Mannosyltransferase from Mycobacterium tuberculosis reveal a WW-Domain-Like Protein Motif in Bacteria” (Communications Biology, 2025):
Positions count from the first letter of the chain named. Names may count otherwise.

B1: MtPMT: M. tuberculosis protein-O-mannosyltransferase, wild type (protein, UniProt P9WN05 1-522, looked up)
Polyprenol-phosphate-mannose-- …: MTARPPESCVLAKDRPEEPVVPVVSPGPLVPVADFGPLDRLRGWIVTGLITLLATVTRFLNLGSLTDAGTPIFDEKHYAPQAWQVLNNHGVEDNPGYGLVVHPPVGKQLIAIGEAIFGYNGFGWRFTGALLGVVLVALVVRIVRRISRSTLVGAIAGVLLICDGVSFVTARTALLDGFLTFFVVAAFGALIVDRDQVRERMHIALLAGRSAATVWGPRVGVRWWRFGAGVLLGLACATKWSGVYFVLFFGAMALAFDVAARRQYQVQRPWLGTVRRDVLPSGYALGLIPFAVYLATYAPWFASETAIDRHAVGQAVGRNSVVPLPDAVRSLWHYTAKAFHFHAGLTNSAGNYHPWESKPWTWPMSLRPVLYAIDQQDVAGCGAQSCVKAEMLVGTPAMWWLAVPVLAYAGWRMFVRRDWRYAVVLVGYCAGWLPWFADIDRQMYFFYAATMAPFLVMGISLVLGDILYHPGQGSERRTLGLIVVCCYVALVVTNFAWLYPVLTGLPISQQTWNLEIWLPSWR
B2: R441A (protein, UniProt P9WN05 1-522, looked up, variant R441A)
Polyprenol-phosphate-mannose-- …: B1 Polyprenol-phosphate-mannose-- … with R441A
B3: phenylalanine was substituted for Y444: MtPMT with phenylalanine substituted for Y444 (protein, UniProt P9WN05 1-522, looked up, variant Y444F)
Polyprenol-phosphate-mannose-- …: B1 Polyprenol-phosphate-mannose-- … with Y444F
B4: D74A (protein, UniProt P9WN05 1-522, looked up, variant D74A)
Polyprenol-phosphate-mannose-- …: B1 Polyprenol-phosphate-mannose-- … with D74A
B5: Y371A-L392A (protein, UniProt P9WN05 1-522, looked up, variant Y371A L392A)
Polyprenol-phosphate-mannose-- …: B1 Polyprenol-phosphate-mannose-- … with Y371A, L392A
B6: E74D75: di-substitution of D74E75 with the reversed doublet (protein, UniProt P9WN05 1-522, looked up, variant D74E E75D)
Polyprenol-phosphate-mannose-- …: B1 Polyprenol-phosphate-mannose-- … with D74E, E75D
B7: S365T (protein, UniProt P9WN05 1-522, looked up, variant S365T)
Polyprenol-phosphate-mannose-- …: B1 Polyprenol-phosphate-mannose-- … with S365T
B8: D74E (protein, UniProt P9WN05 1-522, looked up, variant D74E)
Polyprenol-phosphate-mannose-- …: B1 Polyprenol-phosphate-mannose-- … with D74E
B9: D176E (protein, UniProt P9WN05 1-522, looked up, variant D176E)
Polyprenol-phosphate-mannose-- …: B1 Polyprenol-phosphate-mannose-- … with D176E
B10: W362A (protein, UniProt P9WN05 1-522, looked up, variant W362A)
Polyprenol-phosphate-mannose-- …: B1 Polyprenol-phosphate-mannose-- … with W362A
B11: L392A (protein, UniProt P9WN05 1-522, looked up, variant L392A)
Polyprenol-phosphate-mannose-- …: B1 Polyprenol-phosphate-mannose-- … with L392A
B12: R441L (protein, UniProt P9WN05 1-522, looked up, variant R441L)
Polyprenol-phosphate-mannose-- …: B1 Polyprenol-phosphate-mannose-- … with R441L

Columns and labels:
EL4Cter* peptide = type: binding; conditions: EL4Cter* 35 µM; increasing concentration of Z^x95; mean of three independent measurements
MtPMT [1] = conditions: in vivo (M. smegmatis cell assay); cited from earlier work
PhoA = type: cell-based, E. coli
FasC^His = type: cell-based, M. smegmatis
MtPMT [2] = type: cell-based; conditions: MtPMT mutant expressed in M. smegmatis ΔMsPMT; ELLA, relative to WT (100%) and No PMT (0%)

Molecule | FasC^His mannosylation / MtPMT enzymatic activity (ConA binding) (MtPMT [2]) | further results
Cc1cc(-n2c(C)cc(/C=C/C(=O)N3CCCC3c3cccs3)c2C)no1 (stereo not shown) [Z^x95, (2E)-3-[2,5-dimethyl-1-(5-methyl-1,2-oxazol-3-yl)-1H-pyrrol-3-yl]-1-[2-(thiophen-2-yl)pyrrolidin-1-yl]prop-2-en-1-one] | – | effect on thermal denaturation curves of EL4Cter* (EL4Cter* peptide): dose-dependent deviation of EL4Cter* thermal denaturation curves; effect on FasC mannosylation in vivo (MtPMT [1]): reduce FasC mannosylation in vivo
B1 | – | phosphatase activity on solid medium (chromogenic substrate) (PhoA): remained uncolored; number of FasC glycosylation states (FasC^His): 18
B2 | completely abolished FasC mannosylation | –
B3 | almost half of the FasC mannosylation level remained | –
B4 | complete lack of mannosylation | –
B5 | complete abolition of the mannosyl transferase activity | –
B6 | failed to restore Fasc^His mannosylation | –
B7 | only partially impacted FasC mannosylation | –
B8 | only marginally restored enzyme activity | –
B9 | slightly restored mannosylation activity | –
B10 | absence of Fasc^His mannosylation | reduction of expression of mutated enzyme (PhoA activity of PhoA fusion) (PhoA): about 50%
B11 | – | reduction (drop) of apparent FasC mannosylation level (MtPMT [2]): 73%
B12 | completely abolished FasC mannosylation | –
